Among the data in US20080234471A1 are Specific activity, Km-Value and Rel. Activity values, retold here.

For test [1], the target named is GnGn-peptide.
Test [2] deals with GnGn-peptide. This is another data set of the same source.

“GlcNAc-α1,3-fucosyl transferase isolated from mung bean seedlings (enzyme)” displayed a Specific activity with GnGn-peptide [1] of 43400 mU/mg.
As to “recombinant GlcNAc-α1,3-fucosyl transferase (enzyme)”, the values for the Km-Value in the test with GnGn-peptide [2] and with GnGnF^6-peptide were 190 µM and 130 µM, respectively. The Rel. Activity with MM-peptide is 0%.
